{"source": "the nanobody polyreactivity screen of Harvey et al. (2022)"}
{"assay": "yeast display, Sf9 membrane polyspecificity reagent, FACS + sequencing; frameworks hold sequencing errors", "how_it_was_run": "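A synthetic nanobody library was expressed on Saccharomyces cerevisiae BJ5465 by galactose induction for 36–48 hours. The library was stained for 1 hour at 4 °C with 10% biotinylated, detergent-solubilized Sf9 membrane reagent and enriched with streptavidin microbeads before FACS. Low and high (top ~1%) gates were set on anti-HA fluorescence for expression and streptavidin fluorescence for reagent binding, and each polyreactivity label reflects the gate of origin.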"}
{"sequence": "QVQLVESEGGLVQAGGSLRLSFAASGSIFPYNAMGWYRQAPGKERELVAAISISGGSTYYADSVKGRFTISRDNAKNTVYLLMNSLKPEDTAVYYCAARQSLSSAFDYCGQGTQVTVSS", "polyreactivity (PSR sort gate)": "low polyreactivity"}
{"sequence": "QVQLVESGGGLVQAGGSLRLSCAASGFIFVYNAMGWYRPAPGKERELVAAIDYGGGSTTYADSVKGRFTISRDNAKNTVYLQMNSLKPEDTAVYYCAAYYRYLDDIYEYEYWGQGTQVTVSS", "polyreactivity (PSR sort gate)": "low polyreactivity"}
{"sequence": "QVQLVESGGGLVQAGGSLRLSCAASGRTFPYYAMGWYRQAPGKERELVAVITSGASTYYADSVKGRFTISRDNAKNTVYLQMNSLKPEDTAVYYCNARYSWKYDYWGQGTQVTVSS", "polyreactivity (PSR sort gate)": "high polyreactivity"}
{"sequence": "QVQLVESGGGLVQAGGSLRLTFAASGSTFDYYAMGWYRQAPGKERELVAGITSDGSTYYADSVKGRFTISRDNAKNTVYLQMNSLKPEDTAVYYCDVDVDPVFYTTYYYSYYYWGQGTQVTVSS", "polyreactivity (PSR sort gate)": "low polyreactivity"}
{"sequence": "QVQLVESGGGLVQAGGSLRLSCAASGFIYRVYGMGWYRQAPVKERELLAAISGRGGSTYYADSVKGRFTISRDNANNTVYLQMHSLKPEDTAVYYCYTLDIRTYSKYDYWGQGTQVTVSS", "polyreactivity (PSR sort gate)": "high polyreactivity"}
{"sequence": "QVQLVESGGGLVQAGGSLRLSCAASGSTFAYNDMGWYRQAPGKERELVADIRSGGNTNYADSVKGRFTISRDNAKNTVYLQMNSLKPEDTAFYYCNVKYFVVAGYRYVKFDYWGQGTQVTVSS", "polyreactivity (PSR sort gate)": "low polyreactivity"}
{"sequence": "QVQLVESGGGLVQAGGSLRLSCAASGTTFDSNGRGWYREAPGKERELVAAIRSGDSTYYADSVKGRCTISRDNAKNTVYLQMISLKPEDTAVYYCNKDEATFLSKDDYWGQGTQVTVSS", "polyreactivity (PSR sort gate)": "low polyreactivity"}
{"sequence": "QVQLVESGGGLVQAGGSLRLSCAASGSIFYRYTMGWYRQAPGKERELVAAISSRGGSTYYADSVKGRFTISRDNAKNTVYLQMNSLKPEDTAVYYCAARFSYWAPSKGYGYWGQGTQVTVSS", "polyreactivity (PSR sort gate)": "high polyreactivity"}
{"sequence": "QVQLVESGGGLVQAGGRLRLSCAPSGSTFHSNDMGWYRQAPGKERELVAAITWSGARTYYVDSVKGRFTISRDNAKNTVYLQMNSLKPEDTAVYSCAKKAPSDRNNYWGQGTQVTVSS", "polyreactivity (PSR sort gate)": "high polyreactivity"}
{"sequence": "EEELVESGGGLVQAGGSLRLSCAASGSTFLVYAMGWYRQAPGKERELVAVITYSTVRTYYADSVKGRFTISRDNAKNTVYLQMNSLKPEDTAVYYCNADIEFAVLGQGMDYWGQGTQVTVSS", "polyreactivity (PSR sort gate)": "low polyreactivity"}
{"sequence": "QVQLVESGGGIVQAGGSLRLSCAASGSTLDYHDMGWYRQAPGKEREFVAAIRSNDGSTYYADSVKGRFTISLDNAKNTVYLQMNSLKPEDTAVYYCNKDVWDGYDWPEFDYWGQGTQVTVSS", "polyreactivity (PSR sort gate)": "low polyreactivity"}
{"sequence": "QVQLVESGGGLVQAGGSLRLSCAASGIIFGTNAMGWYRQAPGKERELVASITSDGSTYYADSVKGRFTISRDNAKNTVYLQMNSLKPEDTAVYYCAADHYWADGVYLYDTYEYGYWGQGTQVTVSS", "polyreactivity (PSR sort gate)": "low polyreactivity"}
{"sequence": "QVQLVESGGGLVQAGGSLRLSCAASGSIFNDYGKAWYRQAPGKERDLVAAISASGGSTYYADSVKGRFTISRYNAKNPVYLQLNSLNPEDTAVYYCAAYYMGLYYLYVDALGYDYWGQGTQVTVSS", "polyreactivity (PSR sort gate)": "low polyreactivity"}
{"sequence": "QVQLVESGGGLVQAGGSLRLSCAASGRTSVIYAMGWYRQAPGKERELVASIRRGGSTSYADSVKGRFTISRDNAKNTVYLQMNSLKPEDTAVYYCAARKRSVYGTEYDYWGQGTQVTVSS", "polyreactivity (PSR sort gate)": "high polyreactivity"}
{"sequence": "QVQLVESGGGLVQAGGSLSLSCAASGRIFSNYAMGWYRQAPGKERELVADISSRGVSTYYADSVKGRFTISRDNAKNPGYLQMKSLKPEDTAVYYCAARGYQRQYYYWGQGTQVTVSS", "polyreactivity (PSR sort gate)": "high polyreactivity"}
{"sequence": "QVQLVESGGGIVQAGGSLRLSCAASGFTFGSNAMGWYRQAPGKERELVAAISRSSGRTYYADSVKGRFTISRDNAKNNVYLHMNSLKQEDTAVYYCDAQTPYRISLQYYYWGQGTQVTVSS", "polyreactivity (PSR sort gate)": "high polyreactivity"}
{"sequence": "QVQIVESGGGLVQAGGSLRLSCAASGRTFRVNAMGWYRQAPGKERELVAAISSSGGSTYYADSVKGRFTISRDNAKNTVYLQMNSLKPEDTAVYYCAAVVGGYRYDYLGQGTQVTVSS", "polyreactivity (PSR sort gate)": "high polyreactivity"}
{"sequence": "QVQLVESGGGLVQAGGSLRLSCAASGNTFEYYVMGWYRQAPGKERELVAAITWSTGSTYYADSVKGRFTISRDNAKNTVYLQMNSLKPEDTAVYYCAALYYFIFGRPTRFDYWGLGTQVTVSS", "polyreactivity (PSR sort gate)": "low polyreactivity"}
{"sequence": "QVQLVESGGGLVQAGGSLRLSCAASGFIFTYYAMGWYRQAPGKERELVAAITSGGSTNYADSVKGRFTISRDNAKITVYLQMNSLKPEDTAVYYCASRIYYGRFWYDYWGQGTQVTVSS", "polyreactivity (PSR sort gate)": "high polyreactivity"}
{"sequence": "QVQLVESGGGLVQAGGSLRLSCAASGSIFISYAMGWYRQAPGKERELVAAISRSAGRTYYADSVKGRFTISRDNAKNTVYLQMNSLQPEDTAVYYCAASGYKNGVYTYGYWGQGTQVTVSS", "polyreactivity (PSR sort gate)": "high polyreactivity"}
{"sequence": "QVQLVESGGGLVQAGGSLRLSCAASGSIFYPNAMGWYRQAPGKERELVAAITTGGSTNYADSVKGRFTISRDNAKNTVYLQMNSLKPEDTAVYYCNARHRYHSYTQPRWKYVYWGQGTQVTVSS", "polyreactivity (PSR sort gate)": "low polyreactivity"}
{"sequence": "QVQLVESGGGLVQAGGSLRLSCAASGIIFVDYAMGWYRQAPGKEREFVAAITWSGGSTRYADSVKGRFTISRDNAKNTVYLQMNSLKPEDTAVYYCAALGYNVSSRGYYYWGQGTQVTVSS", "polyreactivity (PSR sort gate)": "low polyreactivity"}
{"sequence": "QVQLVESGGGLVQAGGSLRLSCAASGFTFAVYVMGWYRQAPGKERELVAAISRSGGSTYYADSVKGRFTISRDNAKNTVYLQMNSLKPEDTAVYYCNARVWAKYDYWGQGTQVTVSS", "polyreactivity (PSR sort gate)": "high polyreactivity"}
{"sequence": "QVQLVESGGGLVQAGGSLRLSCAASGSTLLTYTMGWYRQAPGKERELVASITTSGGSTYADSVKGRFTISRDNAKNTVYLQLNSLKPEDTAVYYCAALYLWYSYHVVYQYDYWGQGTQVTVSS", "polyreactivity (PSR sort gate)": "low polyreactivity"}
{"sequence": "QVQLVESGGGLVQAGGSLRLSCAASASIFYRYAMGWYRQAPGKERELVAAITRSGARTYYADSVKGRFTISRDNAKNTVYLQMNSLKPEDNAVYYCAADDPGYYQVEYWGQGTQVTVSS", "polyreactivity (PSR sort gate)": "high polyreactivity"}
{"sequence": "QVQLVESGGGLVQAGGSLRLSCAASGGTSIPYAMGWYRQAPGKERELVAAITRSGGRTYYADSVKGRFTISRDNAKNTVYLQMNSLKPEDTAVYYCAAAYYRWGYTVTVIKQFGYWGQGTQVTVSS", "polyreactivity (PSR sort gate)": "high polyreactivity"}
{"sequence": "QVQRVESGGGLVQAGGSLRLSCAGTGSIFTSNAMRWYRQARGNERELVASISYISGGTYYADSVKGRFTISRDNAKNTVYLQMNSLKPEDTAVYYCAAEQTWGSCQYDPRTYDYWGQGNQVTVSS", "polyreactivity (PSR sort gate)": "low polyreactivity"}
{"sequence": "QVQLVESGGGLVQAGGSLRLSCAASGFTFPGYAMGGYRQAPGKERELVAAISSTDRTTYADSVKGRFTISRDNAKNTVYLQMNSLKPEDTAVYYCNTATRRRPRGYWGQGTQVTVSS", "polyreactivity (PSR sort gate)": "high polyreactivity"}
{"sequence": "QVQLVESGGGLVKAGGSLRLSCAASGFTFPQYAMGWYRQAPGKESELVAAISKRSGGTRYADSVKGRFTISRDNAKNTVYLQMNSLKPEDTAVYYCAAATPSGYYYWGQGTQVTVSS", "polyreactivity (PSR sort gate)": "high polyreactivity"}
{"sequence": "QVQLVESGGGLVQAGGSLRLSCAASGRIFDHNAMGWYRQAPGKERELVAAIDSGTSTNYADSVKGRFTISRDNAKNTVYLQMNSLKPEDTAVYYCARLLGPVRDKYDYDYWGQGTQVTVSS", "polyreactivity (PSR sort gate)": "low polyreactivity"}
{"sequence": "QVQLVESVGGLVQAGGSLRLSCAASGRTFAPNFMGWYRQAPGKERELVAAITYSSASTYYADSVKGRFTISRDNAKNTVYLQMNSLKPEDTAVYYCAARDRYYFGGMYYWGQGTQVTVSS", "polyreactivity (PSR sort gate)": "low polyreactivity"}
{"sequence": "QVQLVESGGGLVQAGGSLRLSCAASGLIFTSYAMGWYRQAPGKERELVAAISYSGGTTFYADSVKGRFTISRDNAKNTVYLQMNSLKPEDTAVYYCAADSLSTTHDTLGYDRDDYWGQGTQVTVSS", "polyreactivity (PSR sort gate)": "low polyreactivity"}
{"sequence": "QVQLVESGGGLVQAGGSLRLSCAASGLTFERYAMGWYRQAPGKERELVADITWSGGRTYYADSVKGRFTISRDNAKNTVYLQMNSLKPEDTAVYYCAADVYPGYVGSQEYDYWGQGTQVTVSS", "polyreactivity (PSR sort gate)": "low polyreactivity"}
{"sequence": "QVQLVESGGGLVQAGGSLRLSCAASGRTFPYNAMGWYRQAPGNERELVAGISSGGTTTYADSVKGRFTISRDNAKNTVYLQMNSLKPEVTAVYYCAATVIIFDHSRPGWDDYDYWGQGTQVTVSS", "polyreactivity (PSR sort gate)": "low polyreactivity"}
{"sequence": "QVQLVESGGGLVQAGGSLRLSCSASGRISNAMGWYRQAPGKERELVATINSGASTNYADSVKGRFTISRDNAKNTVYLQMNSLKPEDTAVYYCNVAYVYGSFRRRPMGYLGQGTQVTVSS", "polyreactivity (PSR sort gate)": "high polyreactivity"}
{"sequence": "QVQLVESGGGLVQAGGSLRLSCAASGSIFQAYAMGWYRQAPGKERELVAAITASGTRTYYADSVKGRFTISRDNAQNTVYLQMNSLKPEDTAVYYCAAGTYRWGFGVRSAMDYWGQGTQVTVSS", "polyreactivity (PSR sort gate)": "high polyreactivity"}
{"sequence": "QVQLVESGGGLVQAGRSLRLSCAASVYILYHNAMGWYRQAPGKERELVAAISYSGGRTYYADSVKGRFTISRDNAKNTVYLQMNSLKPEDTSVYYCNALSVWRTGRGQEFDYWGQGTQVTVSS", "polyreactivity (PSR sort gate)": "high polyreactivity"}
{"sequence": "QVQLVESGGGLVQAGGSLRLSCAASGRIFYTYAMGWYRQAPGKERELVAAIRWSSGSTFYADSVKGRFTISRDNAKNSVYLQMNSLKPEDTAVYYCATEYYPQYQSTGWYDYWGQGTQVTVSS", "polyreactivity (PSR sort gate)": "low polyreactivity"}
{"sequence": "QVQLVESGGGLVQAGGSLRLSCAASGSIFDGYAMGWYRQAPGKEREFVASIRFSTGRTYYADSVKGRFTISRDNAKNSVYLQMNSLKPEDTAGYYCNAPQGFVWRYSSWGPYDYWGQGTQVTVSS", "polyreactivity (PSR sort gate)": "high polyreactivity"}
{"sequence": "QVQLVESGGGLVQAGGSLRLSCAASGITLKYYAIGWYIQAPGKERELVAAITRSGVGTYYADSVKGRFTISRDNAKNTVYLQMNSLKPEDTAVYYCAAASYQSRYWNYYWGQGTQVTVSS", "polyreactivity (PSR sort gate)": "high polyreactivity"}
{"sequence": "QVQLVESGRGLVQAGGSLRLSCAASGSTFAWNAMGWYRQAPGKERELVAAINSGDSTYYADSVKGLFTISRDNAKNTVYLQMNSLKPEDTAVYYCATKYRGVWYTRGQTYYYWGQGTQVNVSS", "polyreactivity (PSR sort gate)": "high polyreactivity"}
{"sequence": "QVQLVESGGGLVQAGGSLRLSCAASGRIFSYYAMGWYRQAPGKERELVAVISRRGDNTYYADSVKGRFTISRDNAKNTVYLQMNSLKPEDTAVYYCAAYSWYAKDFDYWGQGTQVTVSS", "polyreactivity (PSR sort gate)": "high polyreactivity"}
{"sequence": "QVQLVESGGGLVQAGGSLRLSCAASGIFSYYAMGWYRPAPGKERELVAAISSSGGSTYYADSVKGRFTISRDNAMNTVYLQMNSLKPEDTAVYYCNVRNYYNDYYYWGQGTQVTVSS", "polyreactivity (PSR sort gate)": "high polyreactivity"}
